Read-outs that look alike come from different tables or passages of the source.
B1: H16L16 (antibody, human IgG1, kappa)
heavy: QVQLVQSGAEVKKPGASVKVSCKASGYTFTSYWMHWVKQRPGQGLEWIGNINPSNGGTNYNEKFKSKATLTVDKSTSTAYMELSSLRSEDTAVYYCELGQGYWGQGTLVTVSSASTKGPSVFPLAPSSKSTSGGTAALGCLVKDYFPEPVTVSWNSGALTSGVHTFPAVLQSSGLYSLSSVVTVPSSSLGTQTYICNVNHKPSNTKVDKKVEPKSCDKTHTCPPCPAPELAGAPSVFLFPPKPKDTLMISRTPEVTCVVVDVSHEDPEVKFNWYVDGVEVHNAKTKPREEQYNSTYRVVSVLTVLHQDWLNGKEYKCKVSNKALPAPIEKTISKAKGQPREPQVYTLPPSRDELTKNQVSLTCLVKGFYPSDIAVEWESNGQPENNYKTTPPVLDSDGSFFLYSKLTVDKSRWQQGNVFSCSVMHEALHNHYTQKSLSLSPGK
light: DIVMTQSPLSNPVTLGQPVSISCRSSKSLLYKDGKTYLNWFLQRPGQSPQLLIYLMSTRASGVPDRFSGGGSGTDFTLKISRVEAEDVGVYYCQQLVEYPLTFGQGTKLEIKRTVAAPSVFIFPPSDEQLKSGTASVVCLLNNFYPREAKVQWKVDNALQSGNSQESVTEQDSKDSTYSLSSTLTLSKADYEKHKVYACEVTHQGLSSPVTKSFNRGEC
notes: Humanised 2A10; Human gamma1 mutated constant region and human kappa; also called H16L16 FL
B2: H18L16 (antibody, human IgG1, kappa, V domains shown)
VH: QVQLVQSGAEVVKPGASVKLSCKASGYTFTSYWMHWVKQRPGQGLEWIGNINPSNGGTNYNEKFKSKATLTVDKSSSTAYMELSSLRSEDSAVYYCELGQGYWGQGTLVTVSS
VL: DIVMTQSPLSNPVTLGQPVSISCRSSKSLLYKDGKTYLNWFLQRPGQSPQLLIYLMSTRASGVPDRFSGGGSGTDFTLKISRVEAEDVGVYYCQQLVEYPLTFGQGTKLEIKR
notes: Humanised 2A10; also called H18L16 FL
B3: HcLc (chimera of 2A10: murine 2A10 VH and VL with human IgG constant regions) (antibody, V domains shown)
VH: QVQLQQPGTELVKPGASVKLSCKASGYTFTSYWMHWVKQRPGQGLEWIGNINPSNGGTNYNEKFKSKATLTVDKSSSTAYMQLSSLTSEDSAVYYCELGQGYWGQGTLVTVSS
VL: DIVITQDELSNPVTSGESVSISCRSSKSLLYKDGKTYLNWFLQRPGQSPQLLIYLMSTRASGVSDRFSGSGSGTDFTLEISRVKAEDVGVYYCQQLVEYPLTFGAGTKLELKR
notes: Human gamma1 mutated constant region and human kappa; also called 2A10 chimeric antibody; the chimera
B4: H6L18 (antibody, human IgG1, kappa, V domains shown)
VH: QVQLVQSGAEVKKPGASVKVSCKASGYTFTSYWMHWVRQAPGQGLEWIGNINPSNGGTNYNEKFKSRATMTRDTSTSTAYMELSSLRSEDTAVYYCELGQGYWGQGTLVTVSS
VL: DIVMTQDPLSNPVTLGQPVSISCRSSKSLLYKDGKTYLNWFLQRPGQSPQLLIYLMSTRASGVSDRFSGSGSGTDFTLKISRVEAEDVGVYYCQQLVEYPLTFGQGTKLEIKR
notes: Tested as CHO-K1 supernatant
B5: H6Lc (antibody, human IgG1, kappa, V domains shown)
VH: QVQLVQSGAEVKKPGASVKVSCKASGYTFTSYWMHWVRQAPGQGLEWIGNINPSNGGTNYNEKFKSRATMTRDTSTSTAYMELSSLRSEDTAVYYCELGQGYWGQGTLVTVSS
VL: DIVITQDELSNPVTSGESVSISCRSSKSLLYKDGKTYLNWFLQRPGQSPQLLIYLMSTRASGVSDRFSGSGSGTDFTLEISRVKAEDVGVYYCQQLVEYPLTFGAGTKLELKR
notes: Humanised heavy chain H6 paired with chimeric light chain Lc; The pairing is read from the name
B6: murine monoclonal antibody 2A10 (antibody, V domains shown)
VH: QVQLQQPGTELVKPGASVKLSCKASGYTFTSYWMHWVKQRPGQGLEWIGNINPSNGGTNYNEKFKSKATLTVDKSSSTAYMQLSSLTSEDSAVYYCELGQGYWGQGTTLTVSS
VL: DIVITQDELSNPVTSGESVSISCRSSKSLLYKDGKTYLNWFLQRPGQSPQLLIYLMSTRASGVSDRFSGSGSGTDFTLEISRVKAEDVGVYYCQQLVEYPLTFGAGTKLELK
notes: Murine antibody; also called donor antibody

How the values were obtained:
GST-human NOGO-A56 [1] = target: T1, GST-human NOGO-A56 (human, UniProt P08515 1-218 = GST); assay: SPR (Biacore 3000), GST-human NOGO-A56 amine-coupled to CM5, antibody as analyte; mean (SD) of four experiments
T1 construct: GST-tagged fusion expressed in E. coli BL21 and purified on glutathione-sepharose; coated on ELISA plates or amine-coupled to a CM5 chip; also called hNOGO; recombinant human NOGO
T1 sequence (P08515 1-218, tags or fused parts left off): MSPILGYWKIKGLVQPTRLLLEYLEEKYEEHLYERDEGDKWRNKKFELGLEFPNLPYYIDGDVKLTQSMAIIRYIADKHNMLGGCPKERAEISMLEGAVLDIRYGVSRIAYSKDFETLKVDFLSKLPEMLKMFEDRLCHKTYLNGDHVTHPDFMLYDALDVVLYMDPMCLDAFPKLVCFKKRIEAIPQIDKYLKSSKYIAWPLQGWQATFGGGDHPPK
Procedure: (§1) The binding kinetics of the anti-NOGO monoclonal antibody (mAb) to recombinantly expressed human NOGO-A (GST-human NOGO-A56) was analysed using the Biacore3000 biosensor. The hNOGO-A chip was prepared as follows:
(§2) hNOGO (GST-human NOGO-A56) was immobilised to a CM5 chip by primary amine coupling using the Biacore Wizard program designed for targeted immobilisation levels. The CM5 sensor surface was activated by passing a solution of 50 mM N-hydroxy-succinimide (NHS) and 200 mM N-ethyl-N′-dimethylaminopropyl […] (EDC). Then hNOGO in sodium acetate buffer, pH5.0 or pH 4.5, was passed over the chip and immobilised. After immobilisation was complete any still activated esters were blocked by an injection of 1M ethanolamine hydrochloride, pH8.5.
(§3) The anti-NOGO mAbs were diluted down in HBS-EP (10 mM HEPES, pH 7.4, 150 mM NaCl, 3 mM EDTA, and 0.005% P-20 surfactant) and binding studies were carried out at range of defined antibody concentrations. All runs were referenced against a blanked sensor surface (one that had been activated and blocked as described earlier but had no addition of ligand). Analysis of binding was carried out using the BIAevaluation kinetic analysis software version 4.1. Biacore analysis of other antibodies of the invention essentially followed the same protocol as described herein.

GST-human NOGO-A56 [2] = target: T1, GST-human NOGO-A56; assay: SPR (Biacore) off-rate ranking, CHO-K1 transient supernatant over GST-human NOGO-A56 chip; mean (SD) of three runs
Procedure: as §2
(§4) The hNOGO chip was prepared as for kinetic analysis. Cell supernatants where taken directly from transient transfections of CHO-K1 cells. These were passed directly over the sensor surface and the interaction measured. A mock transfected cell supernatant was used for double referencing to remove any artefacts due to the tissue culture media. All runs were referenced against a blanked sensor surface (one that had been activated and blocked as described earlier but had no addition of ligand). Analysis of binding was carried out using the BIAevaluation kinetic analysis software version 4.1.

GST-human NOGO-A56 [3] = target: T1, GST-human NOGO-A56; assay: ELISA, coated GST-human NOGO-A56, transfection supernatant, anti-human kappa-HRP, OD 490 nm
Procedure: (§5) GST-human NOGO-A56 (SEQ ID: 76) at 1 μg/ml in PBS was coated onto Nunc Immunosorp plates (100 μl per well) at 4° C. overnight. Wells were rinsed once with TBS+0.05% Tween (TBST) then incubated with 2% BSA in TBST to block non-specific binding sites at room temperature for 1 hour. Antibodies were diluted in TBST+2% BSA to 10 μg/ml and 1/2 dilutions made from this. Antibodies were added to wells in duplicate and incubated at room temperature for 1 hour. Wells were washed three times with TBST then incubated with anti-human kappa peroxidase conjugate (1:2000) for 1 hour. The wells were washed three times with TBST and then incubated with 100 μl OPD peroxidase substrate (Sigma) per well for 10 minutes. The colour reaction was stopped by the addition of 25 μl concentrated H₂SO₄. Optical density at 490 nm was measured using a plate reader. Background values read from wells with no antibody were subtracted.

GST-human NOGO-A56 [4] = target: T1, GST-human NOGO-A56; assay: as above; remark: listed apart in the source
Procedure: as §5

GST-human NOGO-A56 [5] = target: T1, GST-human NOGO-A56; assay: SPR (Biacore 3000), GST-human NOGO-A56 on CM5, antibody as analyte; single experiment
Procedure: as §1, §2, §3

GST-human NOGO-A56 [6] = target: T1, GST-human NOGO-A56; assay: ELISA, coated GST-human NOGO-A56, transfection supernatant, anti-human kappa-HRP, OD 490 nm; remark: listed apart in the source
Procedure: as §5

GST-human NOGO-A56 [7] = target: T1, GST-human NOGO-A56; assay: SPR (Biacore) off-rate ranking, CHO-K1 transient supernatant over GST-human NOGO-A56 chip; mean (SD) of two runs
Procedure: as §2, §4

GST-human NOGO-A56 [8] = target: T1, GST-human NOGO-A56; assay: ELISA, coated GST-human NOGO-A56, transfection supernatant, anti-human kappa-HRP, OD 490 nm; remark: listed apart in the source
Procedure: as §5

GST-human NOGO-A56 [9] = target: T1, GST-human NOGO-A56; assay: as above; remark: listed apart in the source
Procedure: as §5

GST-human NOGO-A56 [10] = target: T1, GST-human NOGO-A56; assay: as above; remark: listed apart in the source
Procedure: as §5

GST-human NOGO-A56 [11] = target: T1, GST-human NOGO-A56; assay: SPR (Biacore 3000), GST-human NOGO-A56 on CM5, antibody as analyte; mean (SD) of two experiments
Procedure: as §2, §3

GST-human NOGO-A56 [12] = target: T1, GST-human NOGO-A56; assay: ELISA, coated GST-human NOGO-A56, transfection supernatant, anti-human kappa-HRP, OD 490 nm; remark: listed apart in the source
Procedure: as §5

GST-human NOGO-A56 [13] = target: T1, GST-human NOGO-A56; assay: SPR (Biacore) off-rate ranking, CHO-K1 transient supernatant over GST-human NOGO-A56 chip; single experiment
Procedure: as §2, §4

GST-human NOGO-A56 [14] = target: T1, GST-human NOGO-A56; assay: SPR (Biacore 3000), GST-human NOGO-A56 on CM5, antibody as analyte; mean (SD) of two experiments; mean (SD) of two separate experiments
Procedure: as §2, §3

GST-human NOGO-A56 [15] = target: T1, GST-human NOGO-A56; assay: SPR (BiaCore kinetic analysis), human NOGO

Binder | Kd (GST-human NOGO-A56 [1]) [nM] | koff (GST-human NOGO-A56 [1]) [s⁻¹] | kon (GST-human NOGO-A56 [1]) [M⁻¹ s⁻¹] | EC50 (read off the curve) (GST-human NOGO-A56 [3]) [µg/mL] | Kd (GST-human NOGO-A56 [5]) [nM] | koff (GST-human NOGO-A56 [5]) [s⁻¹] | kon (GST-human NOGO-A56 [5]) [M⁻¹ s⁻¹] | EC50 (read off the curve) (GST-human NOGO-A56 [6]) [µg/mL] | koff (GST-human NOGO-A56 [7]) [s⁻¹] | EC50 (read off the curve) (GST-human NOGO-A56 [8]) [µg/mL] | EC50 (read off the curve) (GST-human NOGO-A56 [9]) [µg/mL] | koff (GST-human NOGO-A56 [11]) [s⁻¹] | kon (GST-human NOGO-A56 [11]) [M⁻¹ s⁻¹] | further results
B1 | 1.26 | 0.00554 | 4.37e+06 | ~0.04 | 1 | 0.00569 | 5.47e+06 | ~0.06 |  |  |  |  |  | koff (GST-human NOGO-A56 [2]): 0.00664 s⁻¹; EC50 (read off the curve) (GST-human NOGO-A56 [4]): ~0.06 µg/mL
B2 | 1.62 | 0.00586 | 3.64e+06 |  |  |  |  | ~0.04 | 0.00687 | ~0.4 | ~0.4 |  |  | 
B3 | 1.41 | 0.00378 | 2.7e+06 | ~0.02 | 1.6 | 0.00412 | 2.62e+06 |  | 0.00376 | ~0.2 | ~0.2 | 0.00346 | 3.52e+06 | EC50 (read off the curve) (GST-human NOGO-A56 [10]): ~0.05 µg/mL; Kd (GST-human NOGO-A56 [11]): 0.995 nM; EC50 (read off the curve) (GST-human NOGO-A56 [12]): ~0.09 µg/mL
B4 |  |  |  |  |  |  |  |  |  | ~0.5 | ~0.4 |  |  | koff (GST-human NOGO-A56 [13]): 0.0106 s⁻¹
B5 |  |  |  |  |  |  |  |  |  |  |  | 0.00284 | 2.17e+06 | Kd (GST-human NOGO-A56 [14]): 2.21 nM
B6 |  |  |  |  |  |  |  |  |  |  |  |  |  | Kd (GST-human NOGO-A56 [15]): ~1 nM; koff (GST-human NOGO-A56 [15]): ~0.00184 s⁻¹

Reference: US20060029603A1 (GlaxoSmithKline, published 2006)
